Experimental data taken from the RNAGym collection of RNA variant scans (doi:10.1073/pnas.2313332121).

B1: TPR t1 (parent)
chain: GACCAAUCUGCCCUCAGAGCUCGAGAACAUCUUCGGAUGCAGAGGAGGCAGGCUUCGGUGGCGCGAUAGCGCCAACGUCCUCAACCUCCAAUGCAUCCCACCACAUGAUGAUGCCUGAAGAGCCUUGGUUUUUUG

Variants of: B1
Assay: polymerase ribozyme fitness, log enrichment relative to wild type (log ratio); higher = more active; in vitro selection for triplet polymerase activity
Summary of the method: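 Fitness compares each genotype's enrichment to that of the wild type on a logarithmic scale, averaging replicates with inverse-variance weights. The logarithm is base 2. Enrichment came from Illumina sequencing of input and output libraries after one triplicate round of in vitro selection, which included frozen incubation at −7 °C, of PCR-built, transcribed mutant libraries of each subunit of a heterodimeric triplet polymerase ribozyme. Only genotypes with ≥10 input reads and ≥1 read per output were kept.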

Variant	polymerase ribozyme fitness (log ratio)
A84G A118G	-0.615
C85U U87A C88A	-2.23
C82G C88U A103C G117C	-5.02
A84U U130C	0.517
A84U C115A	-0.457
C85U U96C	-0.852
C85G U130A G135U	-3.18
A83C C101G U109A G120A	-7.06
A84U U106G A118G	-1.83
C80A U109G	-5.76
C80A U109A	-6.3
C86U A103C	-5.52
C86G C88A	-1.96
C82G C97A U112C C115G U133G	-6.38
C82G A118U	0.179
C80A A84U	-3.74
C80G U87A U116G A119U C124G	-6.5
U81A G117U	-3.99
A83C G110U G117U	-5.17
U81A C102A	-3.36
C85G A90U G127C U133A	-4.53
A83U U125A	-0.797
U81G C124A G128C U130G	-2.26
C85A C89A U106A C114A	-5.22

Variant	polymerase ribozyme fitness (log ratio)
C86A A90C G135U	-2.98
A83G C89A U106G	-4.3
U81C C114A	-2.34
C86G C89A C114A	-4.58
A83C C114A C123G C124G	-0.19
C85A C101G U109G G117C	-7.01
A84U G128A	-1.72
A83U G120U U130C	-0.376
A84G C88U U116G C124A	-0.458
C86A C123U C124G	0.744
C85U G113A	-2.02
U81A C82A C98U	-3.39
C85G U130G	-2.71
C86U C94U C115A	-0.874
C82U C89U G113U G120A G128A	-5.47
C85A C102U A121U C124U	-1.07
C86G U112G	0.00839
C86G G93C U132C	-2.42
C82U G117U	-2.7
U81G G120A	-3.83
A83C C88U	-0.561
A84C C85G G93A C101U	-2.22
A84C C124A	1.76
A84C C124G	1.9

Variant	polymerase ribozyme fitness (log ratio)
A83G G93A G120U	-1.68
A83C U92A C114A G128C	-6.64
C86A C115A G128A U133A	-4.43
C80U C102A U106A U112A	-4.1
U81G G93A U106A C123U	-3.83
A84C U116C	0.658
C86U C114U	-1.7
C86G C101A	-1.32
A83G C97U C115A G135C	-1.7
A84G C88U	-0.134
A84U C115A U125G	-0.872
C85U C88U	-0.176
C85G G113C	-3.51
C85G G113A	-2.15
C82A C123U	0.707
C82U U87C G113A	-1.19
C86U C97U	-0.517
C82G G110U	-3.25
C80U U106A	-0.267
C80A U129A	-3.77
U81A A90U	-2.41
C82U U96A C101A G127A	-4.42
A83G C86A G113A	-2.01
C86G C102G C115A U133A	-5.49

Variant	polymerase ribozyme fitness (log ratio)
A84U U112G	0.742
C82A U87A	-0.237
C86G A100U G128C	-3.41
C80U A84U	-1.02
C82A C97G	-5.53
A84U G117C C124G	-1.4
C85A G113C G122C U129C	-4.98
A83U G107A	-5.83
C85A A100C	-2.71
C80G U106G G110A C124G	-6.57
C80A C114G G117U	-6.34
U81G A95U	-6.29
C86U A100C G110U U129C	-4.69
C80A U116G G120C C123A	-3.59
C80A U96C C115A	-3.34
C82U U96G G122A	-1.25
C85U G120A	-0.267
C80U C98U	-1.69
C82A G110U C123U	-2.47
U81C G127C	-1.22
A83G C89A	-3.89
A83U A91C G128A	-2.84
C82G G128A	-2.22
C82A U92A	-3.43

Variant	polymerase ribozyme fitness (log ratio)
A84G U129G	-1.32
A84G	-0.482
A84C	-0.112
A84U	-0.405
C80G U132C	-4.66
C85G G117C G128U	-7.06
A83U C98U U130C	-0.673
C82G U109C	-5.03
U81G C94G G117U	-6.8
C86A U92A G93C G120A	-4.42
U81C C97U C114A	-3.09
A84C C114G G127A	-4.73
C86A A91U	-2.01
C82A G93C A111C	-0.977
C82G C98A A118U	-5.57
C85G A119G	-0.0195
A83G A90G	-0.465
C86A G120U	-0.761
C80U U133G	-0.514
C85U U112A G122U U126G	-4.47
C85U C86G	-1.13
C85A U116C	-2.08
C85A G110A G127A	-3.71
C85G U132A	-1.6

Variant	polymerase ribozyme fitness (log ratio)
A84U U109G	-4.27
C80U C97U	-0.856
A84U U106A	-0.185
C85G G110A U126C	-2.99
A83U C115U C123G G135U	-1.98
A84U G127A	-0.952
C86A G127C	-1.91
A84U U133G	-0.42
C86A C114U A119U	-3.57
A84U C101U G122A U132A	-1.15
C85U A91C A95G	-2.23
A83C G113U	-3.09
C85G C97U	-2.99
A83C U112G G113C G120U U130C	-7.33
C86U G93U U106C C124U U126A	-2.34
C80U C85A	-2.89
C86U A90U	-1.08
C80U C101U A118G A121U U131A	0.732
C82U A91U A100U	-3.25
U81C U106A	0.0236
C82G G117C	-3.58
C85A C104U	-1.07
C85U U109A	-6.03
C85U C123G	0.896

Variant	polymerase ribozyme fitness (log ratio)
C85U C99U	-4.89
A83C G93C	-0.701
U81A A91G U92G	-4.76
C82G C99U	-3.61
C85A A95U A100U	-3.28
A83C A121G	1.63
C85U A90U U109G C124A	-6.07
A83C G107U G113A	-3.74
U81G U130A	-3.23
C80A C85U C86A U87C	-7.24
C82U C88G C124U	0.172
C82U C89A	-1.21
C85U G135U	-1.91
C86A A90U	-1.19
C86A A90G	0.132
C82G G93C U129G	-2.84
C86G G120A	-0.356
A84U C97A	-5.72
A83U G120A U125A	0.929
C82G C123G U126C G128C	-2.13
C86G A100U	-0.874
C85G G117C	-5.23
C85A C99U	-4.7
